Assay results reported in US20240317873A1 (CITY OF HOPE, published 2024).
Like-named read-outs stand apart in the source and are kept apart here. Blank lines part the entries; values can stand above or below the binder they belong to.

Tests used:
[1] = molecular target: T1, HVEM recombinant protein (ELISA-based competition assay) (human, UniProt Q92956 39-202, limits assumed); test: ELISA-based competition assay with recombinant proteins: binding of biotin-labelled HVEM to recombinant LIGHT (the blocked ligand), antibody titrated
T1 construct: The internal control used a biotin-labeled human HVEM; also called recombinant protein of HVEM; biotin-labeled human HVEM
T1 sequence (looked up): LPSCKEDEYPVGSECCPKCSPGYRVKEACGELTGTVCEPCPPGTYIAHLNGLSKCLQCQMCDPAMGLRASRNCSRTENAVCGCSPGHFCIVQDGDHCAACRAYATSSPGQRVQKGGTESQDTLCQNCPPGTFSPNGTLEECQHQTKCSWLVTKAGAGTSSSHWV

[2] = molecular target: T2, HVEM (SinoBio, monomeric) (human, UniProt Q92956 39-202); test: SPR, HVEM immobilised on CM5 chip, Fab as analyte, 25 C
T2 construct: Bought protein immobilised on a CM5 chip by EDC/NHS coupling; also called hHVEM; TNFRSF14
T2 sequence (looked up): T1 sequence (looked up)

[3] = molecular target: T2, HVEM (SinoBio, monomeric); test: SPR; the chip of this figure is not described, the only SPR set-up of the filing is HVEM (SinoBio, monomeric) on CM5
[4] = molecular target: T3, human HVEM on the surface of cells (MM.1S myeloma cells, patient myeloma cells, Jurkat cells overexpressing … (human, UniProt Q92956 39-283)); test: imaging mass cytometry, 166Er-conjugated antibody, mouse bone marrow engrafted with MM1.S cells
T3 construct: whole, on cells; also called CD270; TNFRSF14
T3 sequence (looked up): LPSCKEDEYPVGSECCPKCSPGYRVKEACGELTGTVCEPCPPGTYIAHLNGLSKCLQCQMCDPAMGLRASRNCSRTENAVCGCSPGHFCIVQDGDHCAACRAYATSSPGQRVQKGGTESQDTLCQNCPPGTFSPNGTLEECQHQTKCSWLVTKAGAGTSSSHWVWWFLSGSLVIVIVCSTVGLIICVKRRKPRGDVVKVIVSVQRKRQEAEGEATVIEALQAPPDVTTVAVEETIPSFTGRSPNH
Method: Mass cytometry was performed on mice bone marrow tissues engrafted with MM1.S cells. […] HVEM-4, 5, 13, 17, and 22 were used for staining and the nucleus was counterterstained with Ir-191.

[5] = molecular target: T2, HVEM (SinoBio, monomeric); test: SPR; the chip of this figure is not described, the only SPR set-up of the filing is HVEM (SinoBio, monomeric) on CM5; remark: listed apart in the source
[6] = molecular target: T3, human HVEM on the surface of cells …; test: imaging mass cytometry, 166Er-conjugated antibody, bone marrow of a multiple myeloma patient
Method: Mass cytometery was performed on bone marrow from a patient with multiple myeloma. […] HVEM-4, 5, 13, 17, and 22 were used for staining and the nucleus was counterterstained with Ir-191.

[7] = molecular target: T2, HVEM (SinoBio, monomeric); test: SPR; the chip of this figure is not described, the only SPR set-up of the filing is HVEM (SinoBio, monomeric) on CM5; remark: listed apart in the source

B3: anti-HVEM antibody clone 17 (antibody, human IgG1, kappa, V domains shown)
VH: QIQLVQSGPELKKPGEPVKISCRASGYTLTNFGMNWVKQAPGKGLKWMGWINTYTGEPTYADDFKGRFAFSLETSASTAYLQINNLKNEDTATYFCARSFYGNEHYWGQGTSVTVSS
VL: QIVLTQSPAIMSASPGEKVTLTCSASSSVSSSYLFWYQQKPGSSPKLWIYSTSNLASGVPARFSGHGSGTSYSLTISSMEAEDAASYFCHQWSSYPYTFGGGTKLEIKR
notes: also called HVEM17; HVEM-17
binding result [3]: binds | binding result [4]: binds

B5: anti-HVEM antibody clone 22 (antibody, human IgG1, kappa, V domains shown)
VH: QVQLQQSGAELVRPGASVTLSCKTSGYTFIHYEIHWVKQSPVHGLEWIGAIDPETGGTADNQKFKDKVTLTADKSSNTAYMDLRSLTSEDSAVYYCTRGDWVFAYWGQGTLVTVSA
VL: DVVMTQTPLSLPVSLGDQASISCRSSQSPLHSNGNTYLDWYLQKPGQSPKLLIYKVSNRFSGVPDRFSGSGSGTDFTLKISRVEAEDLGIYFCSQTTHVPPTFGGGTKLEIKR
notes: also called HVEM22; HVEM-22
binding result [6]: binds | binding result [7]: binds

The remaining lines, values ahead:

IC50 (read off the curve) [1]: ~20 nM
B1: mcHVEM13 IgG (clone 13) (antibody, V domains shown)
VH: QIQLVQSGPELKKPGETVKISCKASGYILTNYGMNWVKQAPGKGLKWMGWINTYTGEPTYADAFKGRFAFSLETSASTAYLQINNLKNEDTATYFCARGYGNHWYFDYWGQGTSVTVSS
VL: QIVLTQSPAILSASPGEKVTMTCSASSSVSYMHWYQRKSGTSPKRWIYDTSKLASGVPARFSGSGSGTSYSLTISSMEAEDAATYYCQQWTSDPLTFGAGTKLELKR
notes: Murine chimeric IgG; The constant region of the tested IgG is not spelled out; Metal-conjugated in mass cytometry; also called anti-HVEM13; aHVEM13

Kd [2]: 99.6 nM | koff [2]: 0.138 s⁻¹ | kon [2]: 1.38e+06 M⁻¹ s⁻¹
B2: mcHVEM13 Fab (clone 13) (Fab, V domains shown)
VH: B1 VH
VL: B1 VL
notes: Murine chimeric Fab; also called new mcHVEM13 Fab; anti-hHVEM murine chimeric Fab clone 13

binding result [5]: no binding (tested: 100 nM)
B4: HVEM 23Ab (antibody, human IgG1, kappa, V domains shown)
VH: QIQLVQSGPELKKPGETVKISCKASGYTFTNFGMNWVKQAPGKALKWVGWINTYTGEPTYADDFKGRFAFSLETSATTAYLQISNLKNEDTATYFCARSYYFVTSEDYWGQGTSVTVSS
VL: QIVLTQSPAIMSASPGERVTMTCTARSSVSSSYLHWYQQKPGSSPKLWIYSTSNLASGVPARFSGSGSGASYSLTNSSMEAEDAATYYCHQYHRSTWTFGGGTKLEIKR
notes: also called anti-HVEM antibody clone 23
